The values that follow come from patent US20160084821A1.

The assay deals with BRCA1 protein (mouse) (mouse) (UniProt P48754). Put plainly: cell-based or functional assay.
UniProt P48754, sequence (P48754 whole entry): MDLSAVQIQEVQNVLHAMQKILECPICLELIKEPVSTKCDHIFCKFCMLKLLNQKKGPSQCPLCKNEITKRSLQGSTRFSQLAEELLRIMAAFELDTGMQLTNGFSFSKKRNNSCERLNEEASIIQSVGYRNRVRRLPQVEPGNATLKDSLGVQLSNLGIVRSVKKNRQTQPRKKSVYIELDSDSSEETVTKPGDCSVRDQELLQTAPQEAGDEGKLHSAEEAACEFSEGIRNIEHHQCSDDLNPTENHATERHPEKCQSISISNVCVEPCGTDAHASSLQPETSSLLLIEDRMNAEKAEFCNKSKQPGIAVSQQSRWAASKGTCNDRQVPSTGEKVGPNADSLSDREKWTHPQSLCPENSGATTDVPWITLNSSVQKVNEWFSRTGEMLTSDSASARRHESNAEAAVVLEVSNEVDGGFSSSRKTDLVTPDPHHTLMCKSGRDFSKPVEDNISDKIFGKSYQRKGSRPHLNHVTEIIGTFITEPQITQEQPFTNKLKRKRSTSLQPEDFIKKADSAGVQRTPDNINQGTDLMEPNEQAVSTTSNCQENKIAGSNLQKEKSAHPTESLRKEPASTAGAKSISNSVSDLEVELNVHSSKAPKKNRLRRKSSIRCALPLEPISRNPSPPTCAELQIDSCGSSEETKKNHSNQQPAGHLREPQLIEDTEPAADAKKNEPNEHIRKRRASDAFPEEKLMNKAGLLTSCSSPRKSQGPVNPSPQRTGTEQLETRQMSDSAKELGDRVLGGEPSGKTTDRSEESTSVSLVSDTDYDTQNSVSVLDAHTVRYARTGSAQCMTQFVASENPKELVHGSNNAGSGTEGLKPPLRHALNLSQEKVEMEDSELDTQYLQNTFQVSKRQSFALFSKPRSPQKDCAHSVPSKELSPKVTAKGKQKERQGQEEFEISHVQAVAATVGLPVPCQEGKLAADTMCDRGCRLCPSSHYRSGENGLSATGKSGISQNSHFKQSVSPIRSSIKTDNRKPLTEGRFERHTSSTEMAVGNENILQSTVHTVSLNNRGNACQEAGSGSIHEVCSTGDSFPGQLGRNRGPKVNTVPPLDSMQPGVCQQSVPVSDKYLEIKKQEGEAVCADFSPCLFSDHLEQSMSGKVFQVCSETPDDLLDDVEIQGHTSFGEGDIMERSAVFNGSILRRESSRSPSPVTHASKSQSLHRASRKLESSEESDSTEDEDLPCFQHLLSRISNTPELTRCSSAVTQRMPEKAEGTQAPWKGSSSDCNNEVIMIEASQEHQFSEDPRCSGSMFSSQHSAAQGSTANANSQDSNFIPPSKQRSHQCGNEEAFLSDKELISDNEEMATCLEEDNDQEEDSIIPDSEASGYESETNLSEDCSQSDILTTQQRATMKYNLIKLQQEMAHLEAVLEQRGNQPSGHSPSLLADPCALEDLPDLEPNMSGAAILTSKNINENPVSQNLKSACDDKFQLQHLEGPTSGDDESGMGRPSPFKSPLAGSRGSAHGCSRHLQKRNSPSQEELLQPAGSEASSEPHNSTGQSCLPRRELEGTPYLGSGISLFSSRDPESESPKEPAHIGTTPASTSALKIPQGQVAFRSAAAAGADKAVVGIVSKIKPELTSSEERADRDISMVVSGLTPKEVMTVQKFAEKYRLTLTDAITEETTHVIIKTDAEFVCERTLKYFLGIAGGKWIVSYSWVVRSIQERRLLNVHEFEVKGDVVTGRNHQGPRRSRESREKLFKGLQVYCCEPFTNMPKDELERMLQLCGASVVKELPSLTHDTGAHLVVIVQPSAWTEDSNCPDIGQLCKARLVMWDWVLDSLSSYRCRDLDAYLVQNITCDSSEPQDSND

Consider “FANCD2 protein (mouse, on meiotic chromosomes of spermatocytes) (from UniProt Q80V62 1-1450)”, for which the anti-FANCD2 foci co-localized with regions of intense anti-BRCA1 staining (20 pachytene nuclei) is 65%.
